Laboratory results reported in paper PMC4164012.

Biological target: T1, recombinant E. coli L-asparaginase II (E. coli K-12 (JM109)), P00805
T1 chain: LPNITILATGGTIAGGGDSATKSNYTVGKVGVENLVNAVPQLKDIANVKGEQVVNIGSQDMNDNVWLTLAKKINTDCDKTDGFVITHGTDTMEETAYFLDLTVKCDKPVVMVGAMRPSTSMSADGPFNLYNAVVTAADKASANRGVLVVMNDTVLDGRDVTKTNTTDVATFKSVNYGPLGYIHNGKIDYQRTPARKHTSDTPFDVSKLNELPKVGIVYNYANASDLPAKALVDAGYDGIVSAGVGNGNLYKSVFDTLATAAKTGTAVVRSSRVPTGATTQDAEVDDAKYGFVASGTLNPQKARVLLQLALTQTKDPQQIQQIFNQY
Assay: SEC; analytical HPLC gel filtration on Bio-Sep S-2000, 50 mM Tris-HCl, 10 mM NaCl, pH 7.5; 20 ul of 1.5 mg/ml injected, 1 ml/min; mass from calibration with marker proteins
Conditions: remark: other sources report otherwise

B1: recombinant E. coli L-asparaginase II, P00805 23-348 (enzyme)
chain: T1 chain
A stoichiometry N of 4 was found for B1 in this work.
